Data taken from US6140364A, “Arachidonic acid metabolite, 16-HETE” (The University of Vermont and State Agricultural College, priority 1996, dated 2000).

Columns and labels:
[1] = tested on: rabbit model of thromboembolic stroke (brain infarct); experiment: Brain infarct size in rabbit model of thromboembolic stroke; assay type: in vivo; details: 16-HETE 1 μg/kg per minute for 1 hour from 1 h after embolization, tPA 6.3 mg/kg between 3 and 5 hours
Method: New Zealand rabbits of either sex, weighing 3-4 kilograms were used for the study. Prior to the start of the experiment, the rabbits were divided into three groups, those that were administered either 16-HETE at a rate of 1 μg/kg per minute for one hour, tPA (Genentech, Inc., San Francisco, Calif.) at a concentration of 6.3 mg/kg. 16-HETE plus tPA, or vehicle.
On the day of treatment the animals were fasted for 12 hours with free access to water and then anesthetized with an intramuscular solution of ketamine (50 mg/kg), acepromazine (20 mg) and xylazine (5 mg/kg). This solution was subsequently used to maintain a surgical depth of anesthesia as determined by responses to various physiologic and autonomic stimuli, including mean arterial pressure and response to paw pinch.
The animals were prepared for surgery by introducing femoral venous and arterial catheters (PE50 and 90, respectively; Clay Adams, Parsippany, N.J.). […]
Following determination of all base line values the right common carotid bifurcation is exposed, the internal carotid artery (ICA) isolated, a micro-arteriotomy performed and the 15-mm clot embolized intracranially via the ICA. […] Post embolization rCBF is then determined and the experiment continued if rCBF is reduced to 15 cc /100 gm/minute in at least one of the PT-IR electrodes within the embolized hemisphere. […]

fibrin = details: compared with native tPA or other variants; cited from earlier work
[2] = compared with native tPA; cited from earlier work

| Molecule | brain infarct size [1] | potency / effectiveness (fibrin) | in vivo / circulatory half life [2] |
| --- | --- | --- | --- |
| tPA: tissue plasminogen activator (Genentech, Inc.), thrombolytic agent (protein, UniProt P00750 36-562, looked up) Tissue-type plasminogen …: SYQVICRDEKTQMIYQQHQSWLRPVLRSNRVEYCWCNSGRAQCHSVPVKSCSEPRCFNGGTCQQALYFSDFVCQCPEGFAGKCCEIDTRATCYEDQGISYRGTWSTAESGAECTNWNSSALAQKPYSGRRPDAIRLGLGNHNYCRNPDRDSKPWCYVFKAGKYSSEFCSTPACSEGNSDCYFGNGSAYRGTHSLTESGASCLPWNSMILIGKVYTAQNPSAQALGLGKHNYCRNPDGDAKPWCHVLKNRRLTWEYCDVPSCSTCGLRQYSQPQFRIKGGLFADIASHPWQAAIFAKHRRSPGERFLCGGILISSCWILSAAHCFQERFPPHHLTVILGRTYRVVPGEEEQKFEVEKYIVHKEFDDDTYDNDIALLQLKSDSSRCAQESSVVRTVCLPPADLQLPDWTECELSGYGKHEALSPFYSERLKEAHVRLYPSSRCTSQHLLNRTVTDNMLCAGDTRSGGPQANLHDACQGDSGGPLVCLNDGRMTLVGIISWGLGCGQKDVPGVYTKVTNYLDWIRDNMRP | significantly larger than the 16-HETE group | – | – |
| C84S tPA: tPA variant in which cysteine at position 84 of the growth factor domain of native tPA is replaced by serine (protein, UniProt P00750 36-562, looked up, variant C84S) Tissue-type plasminogen …: SYQVICRDEKTQMIYQQHQSWLRPVLRSNRVEYCWCNSGRAQCHSVPVKSCSEPRCFNGGTCQQALYFSDFVCQCPEGFAGKCSEIDTRATCYEDQGISYRGTWSTAESGAECTNWNSSALAQKPYSGRRPDAIRLGLGNHNYCRNPDRDSKPWCYVFKAGKYSSEFCSTPACSEGNSDCYFGNGSAYRGTHSLTESGASCLPWNSMILIGKVYTAQNPSAQALGLGKHNYCRNPDGDAKPWCHVLKNRRLTWEYCDVPSCSTCGLRQYSQPQFRIKGGLFADIASHPWQAAIFAKHRRSPGERFLCGGILISSCWILSAAHCFQERFPPHHLTVILGRTYRVVPGEEEQKFEVEKYIVHKEFDDDTYDNDIALLQLKSDSSRCAQESSVVRTVCLPPADLQLPDWTECELSGYGKHEALSPFYSERLKEAHVRLYPSSRCTSQHLLNRTVTDNMLCAGDTRSGGPQANLHDACQGDSGGPLVCLNDGRMTLVGIISWGLGCGQKDVPGVYTKVTNYLDWIRDNMRP | – | retains the functional activity of native tPA | longer in vivo half life than native tPA |
| TNK tPA: triple mutant variant of wild type tPA: T103N, N117Q, KHRR (296-299) AAAA tPA (protein, UniProt P00750 36-562, looked up, variant T103N N117Q K296A H297A R298A R299A) Tissue-type plasminogen …: SYQVICRDEKTQMIYQQHQSWLRPVLRSNRVEYCWCNSGRAQCHSVPVKSCSEPRCFNGGTCQQALYFSDFVCQCPEGFAGKCCEIDTRATCYEDQGISYRGNWSTAESGAECTNWQSSALAQKPYSGRRPDAIRLGLGNHNYCRNPDRDSKPWCYVFKAGKYSSEFCSTPACSEGNSDCYFGNGSAYRGTHSLTESGASCLPWNSMILIGKVYTAQNPSAQALGLGKHNYCRNPDGDAKPWCHVLKNRRLTWEYCDVPSCSTCGLRQYSQPQFRIKGGLFADIASHPWQAAIFAAAAASPGERFLCGGILISSCWILSAAHCFQERFPPHHLTVILGRTYRVVPGEEEQKFEVEKYIVHKEFDDDTYDNDIALLQLKSDSSRCAQESSVVRTVCLPPADLQLPDWTECELSGYGKHEALSPFYSERLKEAHVRLYPSSRCTSQHLLNRTVTDNMLCAGDTRSGGPQANLHDACQGDSGGPLVCLNDGRMTLVGIISWGLGCGQKDVPGVYTKVTNYLDWIRDNMRP | – | most effective of the triple mutant variants | – |
